In the nanobody polyreactivity screen of Harvey et al. (2022):

Test: yeast display, Sf9 membrane polyspecificity reagent, FACS + sequencing; frameworks hold sequencing errors
Outline: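 Sorting gates, low and high (top ~1%), were placed on anti-HA fluorescence to track expression and on streptavidin fluorescence to track reagent binding. A clone's polyreactivity label is taken from the gate it came out of. The reagent was 10% biotinylated, detergent-solubilized Sf9 membrane, applied for 1 hour at 4 °C to galactose-induced yeast display cells.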

Sequence | polyreactivity (PSR sort gate)
QVQLVESGGGLVQAGGSLRLSCAASGRTFEQYSMGWYRQAPGKERELVAAISGSGGSTFYADSVKGRFTISRDNAKNTVYLQMNSLKPEDTAVYYCNAPGDGYLYDHTYDYWGQGTQVTVSS | low polyreactivity
QVQLVESGGGLVQAGGSLRLSCAASGRTFESYVMGWYRQAPGKESELVAAISNGGSTNYADSVKGRFTISRDNAKNTVYLQMNSLKPEDTAVYYCAVRVSGPRGYDYEYWGQGTQVTVSS | low polyreactivity
QVQLVESGGGLVQAGGSLRLSCAASGRTFEYYAMGWYRQAPGKERELVASITSGGITNYADSVKGRFTISRDNAKNTVYLQMNSLKPEDTAVYYCNKRPWTRFDWGQGTQVTVSS | low polyreactivity
QVQLVESGGGLVQAGGSLRLSCAASGRTFFDYTMGWYRQAPGKERELVAAITGGDGSTYYADSVKGRFTISRDNAKNTVYLQMNSLKPEDTAVYYCAAGYTAGSYSLDADYYWGQGTQVTVSS | low polyreactivity
QVQLVESGGGLVQAGGSLRLSCAASGRTFFFYAMGWYRQAPGKERELVAGITSRGTRTYYADSVKGRFTISRDNAKNTVYLQMNSLKPEDTAVYYCATDDCRDWLNYWGQGTQVTVSS | low polyreactivity
QVQLVESGGGLVQAGGSLRLSCAASGRTFFHYAMGGSRQAPGKERELVAAMTSRGDSTYYADSVKGRFTISRDNAKNTVYLQMNSLKPAETAVYYCAVYSHRRNMNYWGQGTQVTVSS | high polyreactivity
QVQLVESGGGLVQAGGSLRLSCAASGRTFFINAMGWYRQAPGKERELVAAMRVGAGSTYYADSVKGRFTISRDNAKNTVYLQMNSLKPEDTAVYYCSKRTATSTRKYDYWGQGTQVTVSS | high polyreactivity
QVQLVESGGGLVQAGGSLRLSCAASGRTFFINTMGWYRQAPGKEREFVAAITWSAGRTYYADSVKGRFTISRDNAKNTVYLQMNSLKPEDTAVYYCAAALHGHTFPFYYWGQGTQVTVSS | low polyreactivity
QVQLVESGGGLVQAGGSLRLSCAASGRTFFIYAMGWYRQAPGKERELVAAIRWRGGSTYYADSVKGRFTISRDNAKNTVYLLMNSLKPEDTAVYYCAASTRQARYEDYYWGQGTQVTVSS | high polyreactivity
QVQLVESGGGLVQAGGSLRLSCAASGRTFFKYAMGWYRQAPGKERELVATITSSGGITYADSVKGRFTISRDNAKNTVYLQMNSLKPEDTAVYYCNARVWVTHYSELNYWGQGTQLTVSS | low polyreactivity
QVQLVESGGGLVQAGGSLRLSCAASGRTFFKYVKGWYRQAPGKERELVAAISSGGSTNYADSVKGRFTISRDNAKNTVYLQMNSVKPEDTAVYSCAASRYRGYYYWGQGTQVTVSS | high polyreactivity
QVQLVESGGGLVQAGGSLRLSCAASGRTFFLYTMGWYRQAPGKEREFVAAINYSGGRTYYADSVKGRVTISRDHAKNTVYLQMNSLKPEDTAVDYCNAVYSFLYPDHMGYWGQGTQVTVSS | high polyreactivity
QVQLVESGGGLVQAGGSLRLSCAASGRTFFPYAMGWYRPAPGKERELVAAITRSGSTYYADSVKGRFTISRDNAKNTVYLQMNSLKPEDTAVYYCAADYSPWRSDFDYWGQGTQVTVSS | low polyreactivity
QVQLVESGGGLVQAGGSLRLSCAASGRTFFPYAMGWYRQEPGKERELVADIRRGGSTYYADSVKGRFTISRDNAKNNVYLQMYSLKPEDTAVYYCNVDFWWNRLYELDYWGQGTQVTVSS | high polyreactivity
QVQLVESGGGLVQAGGSLRLSCAASGRTFFRYAMGWYRQAPGKERELVAAISRSGGGTYYADSVKGRFTISRDNAKNTVYLQMNSLKPEDTAVYYCNRDDYSRNHVYEFDYWGQGTQVTVSS | low polyreactivity
QVQLVESGGGLVQAGGSLRLSCAASGRTFFRYVMGWYRQAPGKERELVAAISRSGGSTYYADSVKGRFTISRDNAKITVYLQMNSLKTEDTAVYYCNSVARSTVVPTEFDYWGQGTQVTVSS | high polyreactivity

Sequence | polyreactivity (PSR sort gate)
QVQLVESGGGLVQAGGSLRLSCAASGRTFFSYAMGWYRQAPGKERELVAAISRRGSSTYYADSVKGRFTISRDNAKNTVYLQMNSLKPEDTAVYYCAADVVRGSRYNRYGYWGQGTQVTVSS | high polyreactivity
QVQLVESGGGLVQAGGSLRLSCAASGRTFFSYAMGWYRQAPGKERELVAAISWSGGTTYYADSVKGRFTISRDNAKNTVYLQMNSLKPEDTAVYYCAAYVYQEGYRYYYWGQGTQVTVSS | high polyreactivity
QVQLVESGGGLVQAGGSLRLSCAASGRTFFTYAMGWYRQAPGKERELVASITRSGVSTYYADSVKGRFTISRDNAKNTVYFQMNSLKPEDTAVYYCNTRYPYYWPIYGYWGQGTQVTVSS | high polyreactivity
QVQLVESGGGLVQAGGSLRLSCAASGRTFFVNAMGWYRQAPGKERELVATITFSGDSTYYADSVKGRFSISRDNAKNTVYLQMNSLKPEDTAVYYCAAYQGQKGYDYWGQGTQVTVSS | high polyreactivity
QVQLVESGGGLVQAGGSLRLSCAASGRTFFWNDMGWYRPAPGKERELVAAITWSGGSTYYADSVKGRFTISRDNAKNTVYLQMNSLKPEDTAVYYCDAVVSDYVWRYEYWGQGTQVTVSS | low polyreactivity
QVQLVESGGGLVQAGGSLRLSCAASGRTFFYYAMGWYRQAPGKERELVAAISTNGGSTYYADSVKGRFTISRDNAKNTVYLQMNSLKPEDTAVYYCNTYATPHRSGGGLGGHYYWGQGTQVTVSS | low polyreactivity
QVQLVESGGGLVQAGGSLRLSCAASGRTFFYYSMGWYIQAPGKEREFVSGISKSGSSTYYADSVKGRFTISRDNPKNTVYLQLISLKPEDTADSYCAAVSKRGAGGRRTEYWGQGTQVTVSA | high polyreactivity
QVQLVESGGGLVQAGGSLRLSCAASGRTFFYYTMGWYRQAPGKERELVAAITGSGTRTYYADSVKGRFTISRDNAKNTVYYQMNSLKPEDTAVYYCAAGYSDFSGQQVYYWGQGTQVTVSS | high polyreactivity
QVQLVESGGGLVQAGGSLRLSCAASGRTFGAYAMGWYRQAPGTERELVAAISSSGGSTYYADSVKGRFTISRDNAKNTVYLQMNSLKPEDTAVYYCAKGWHRGVGFGYWGQGTQVTVSS | high polyreactivity
QVQLVESGGGLVQAGGSLRLSCAASGRTFGDYAMGWYRQAPGKERELVAAISGTGGSTYYADSVKGRFTISRDNAKNTVYLQMNSLKPEDTAVYYCAARLKYIRFYYWGQGTQVTVSS | high polyreactivity
QVQLVESGGGLVQAGGSLRLSCAASGRTFGDYAMGWYRQAPGKERELVAAISSSGGRTYYADSVKGRFTISRDNAKNTVYLQMNSLKPEDTAVYYCATDYLYVYGFEYYYWGQGTQVTVSS | high polyreactivity
QVQLVESGGGLVQAGGSLRLSCAASGRTFGFNVMGWYRQAPGKERELVAAISRSGGSTYYADSVKGRFTISRDNAKNTVYLQMNRLKPEDTAVYYCNKRYVHRYGYWGPGTQVTVSS | low polyreactivity
QVQLVESGGGLVQAGGSLRLSCAASGRTFGFNVMGWYRQAPGKERELVAAISWSGGSTYYADSVKGRFTISRDNAKNTVYLQLNSLKPADTAVYYCNKRYVHRYGYWGQGTQVTVSS | low polyreactivity
QVQLVESGGGLVQAGGSLRLSCAASGRTFGFYDMGWYRQAPGKERELVAAIRGSIGYTYYADSVKGRITISRDNAKNTVYLQMTSLKPEDTAVYYCAKAIRYPAAKFYWGQGSQVTVSS | high polyreactivity
QVQLVESGGGLVQAGGSLRLSCAASGRTFGGNAMGWNRHAPGKERELVAGINISGGSTNYADSVKGRYTISRDNAKNTVYLQMNSLKPEDSAVYYCNADTAVYAWDDDYWGQGTQVTVSS | low polyreactivity
QVQLVESGGGLVQAGGSLRLSCAASGRTFGGNAMGWYRQAPGKERELVAAISRSGGRTYYADSVKGRFTISRDNAKNTVYLQMNSLKPEDTAVYYCAAKYQYTQYDYWGQGTQVTVSS | high polyreactivity
